Assay results taken from article doi:10.1101/2024.05.29.596243 (bioRxiv, 2024).

Molecular target: the molecule itself
Assay: cryo-electron tomography with subtomogram averaging

B1: H+-ATPase Pma1 (natural protein, UniProt Q6FXU5 1-902, looked up)
chain: MSDVESNNEKPPQDVYEDEEMSEDDDIDALIEELQSHHGMGDDDDSEDEGHHTGSARVVPEEYLQTDPSYGLTSDEVAHRRKKYGLNQMADERESMIVKFVMFFVGPIQFVMEAAAILAAGLSDWVDFGVICGLLMLNACVGFIQEFQAGSIVDELKKTLANVAVVIRDGQLVEVPANEVVPGDILQLEDGTIIPADGRLVTENCFLQVDQSAITGESLAVDKGYGDQTFSSSTVKRGEAFMVVTATGDNTFVGRAAALVNKASGGQGHFTEVLNGIGILLLVLVIVTLLGVWAACFYRTDNIVKILRFTLGITIIGVPVGLPAVVTTTMAVGAAYLAKKQAIVQKLSAIESLAGVEILCSDKTGTLTKNKLSLHEPYTVEGVSADDLMLTACLAASRKKKGLDAIDKAFLKSLINYPKAKDALTKYKVIEFHPFDPVSKKVTAVVESPEGERIVCVKGAPLFVLKTVEEDHPIPEDVHENYENKVAELASRGFRALGVARKRGEGHWEILGVMPCMDPPRDDTAETVNEARRLGLRVKMLTGDAVGIAKETCRQLGLGTNIYNAERLGLGGGGDMPGSELADFVENADGFAEVFPQHKYKVVEILQNRGYLVAMTGDGVNDAPSLKKADTGIAVEGASDAARSAADIVFLAPGLSAIIDALKTSRQIFHRMYSYVVYRIALSLHLELFLGLWIIILNHSLDIELIVFIAIFADVATLAIAYDNAPFSQTPVKWNLPRLWGMSIILGIVLAIGTWICLTTMFLPRGGIIQNFGSIDGVLFLQISLTENWLIFVTRAVGPFWSSIPSWQLAGAVFAVDIIATMFTLFGWFSQNWTDIVTVVKIYIWSIGVFCVLGGFYYIMSESVVFDRLMNGKPLKEEKSTRSVEDFLAAMQRVSTQHEKEN
  stoichiometry N: 6
